Patent publication US11028159B2 (priority 2017, dated 2021)

Test system: venoms of different snake species
Format: binding

B1: VHH candidate against cobrotoxin: camelid (llama) single-domain VHH antibody binding cobrotoxin, SEQ ID NO 4 (protein)
VHH: MAQVQLQESGGGLAQAGGSLRLSCSASRNIFRVYGWYRQAPGKQREWVASITRDDSTAYADSVKGRFTISRDSAKNTMYLQMSSLRLEDTSTYYCAAQSISGTIQWGQGTQVTVSSTSGPGGQHHHHHHGAEQKLISEEDLS
  number of venoms of different snake species bound (ELISA): at least 6
